In the Human Domainome abundance scans (Beltran et al. 2025):
± gives the uncertainty stated by the source.

Assay: abundance fitness (aPCA) (normalised: wild type 0, dead -1); higher = more abundant; growth selection in yeast, the domain comes from the species named
Settings: Homo sapiens

Substance	abundance fitness
NEDD4-like E3 ubiquitin-protein ligase WWP2 M440S, O00308	-0.102 ± 0.086
NEDD4-like E3 ubiquitin-protein ligase WWP2 M440T, O00308	-0.117 ± 0.033
NEDD4-like E3 ubiquitin-protein ligase WWP2 M440V, O00308	-0.114 ± 0.079
NEDD4-like E3 ubiquitin-protein ligase WWP2 M440W, O00308	-0.831 ± 0.3
NEDD4-like E3 ubiquitin-protein ligase WWP2 M452A, O00308	-0.01 ± 0.048
NEDD4-like E3 ubiquitin-protein ligase WWP2 M452C, O00308	0.009 ± 0.055
NEDD4-like E3 ubiquitin-protein ligase WWP2 M452D, O00308	-0.12 ± 0.056
NEDD4-like E3 ubiquitin-protein ligase WWP2 M452E, O00308	0.046 ± 0.046
NEDD4-like E3 ubiquitin-protein ligase WWP2 M452F, O00308	-0.097 ± 0.05
NEDD4-like E3 ubiquitin-protein ligase WWP2 M452G, O00308	-0.197 ± 0.051
NEDD4-like E3 ubiquitin-protein ligase WWP2 M452H, O00308	-0.258 ± 0.066
NEDD4-like E3 ubiquitin-protein ligase WWP2 M452I, O00308	-0.001 ± 0.053
NEDD4-like E3 ubiquitin-protein ligase WWP2 M452K, O00308	-0.36 ± 0.11
NEDD4-like E3 ubiquitin-protein ligase WWP2 M452L, O00308	-0.108 ± 0.042
NEDD4-like E3 ubiquitin-protein ligase WWP2 M452P, O00308	-0.337 ± 0.054
NEDD4-like E3 ubiquitin-protein ligase WWP2 M452Q, O00308	-0.107 ± 0.063
NEDD4-like E3 ubiquitin-protein ligase WWP2 M452R, O00308	-0.103 ± 0.035
NEDD4-like E3 ubiquitin-protein ligase WWP2 M452S, O00308	-0.069 ± 0.04
NEDD4-like E3 ubiquitin-protein ligase WWP2 M452T, O00308	-0.017 ± 0.033
NEDD4-like E3 ubiquitin-protein ligase WWP2 M452V, O00308	0.034 ± 0.038
NEDD4-like E3 ubiquitin-protein ligase WWP2 M452W, O00308	-0.194 ± 0.057
NEDD4-like E3 ubiquitin-protein ligase WWP2 M452Y, O00308	-0.159 ± 0.049

Substance	abundance fitness
NEDD4-like E3 ubiquitin-protein ligase WWP2 N466A, O00308	-0.242 ± 0.034
NEDD4-like E3 ubiquitin-protein ligase WWP2 N466C, O00308	-0.169 ± 0.048
NEDD4-like E3 ubiquitin-protein ligase WWP2 N466D, O00308	-0.377 ± 0.064
NEDD4-like E3 ubiquitin-protein ligase WWP2 N466E, O00308	-0.238 ± 0.069
NEDD4-like E3 ubiquitin-protein ligase WWP2 N466F, O00308	-0.145 ± 0.071
NEDD4-like E3 ubiquitin-protein ligase WWP2 N466G, O00308	-0.184 ± 0.051
NEDD4-like E3 ubiquitin-protein ligase WWP2 N466H, O00308	-0.169 ± 0.075
NEDD4-like E3 ubiquitin-protein ligase WWP2 N466I, O00308	-0.261 ± 0.079
NEDD4-like E3 ubiquitin-protein ligase WWP2 N466K, O00308	-0.202 ± 0.07
NEDD4-like E3 ubiquitin-protein ligase WWP2 N466M, O00308	-0.188 ± 0.07
NEDD4-like E3 ubiquitin-protein ligase WWP2 N466P, O00308	-0.636 ± 0.075
NEDD4-like E3 ubiquitin-protein ligase WWP2 N466Q, O00308	-0.06 ± 0.068
NEDD4-like E3 ubiquitin-protein ligase WWP2 N466R, O00308	-0.164 ± 0.043
NEDD4-like E3 ubiquitin-protein ligase WWP2 N466S, O00308	-0.175 ± 0.049
NEDD4-like E3 ubiquitin-protein ligase WWP2 N466T, O00308	-0.255 ± 0.063
NEDD4-like E3 ubiquitin-protein ligase WWP2 N466V, O00308	-0.212 ± 0.048
NEDD4-like E3 ubiquitin-protein ligase WWP2 N466W, O00308	-0.513 ± 0.047
NEDD4-like E3 ubiquitin-protein ligase WWP2 N466Y, O00308	-0.366 ± 0.085
NEDD4-like E3 ubiquitin-protein ligase WWP2 P444A, O00308	-0.089 ± 0.059
NEDD4-like E3 ubiquitin-protein ligase WWP2 P444D, O00308	0.148 ± 0.061
NEDD4-like E3 ubiquitin-protein ligase WWP2 P444F, O00308	0.098 ± 0.067
NEDD4-like E3 ubiquitin-protein ligase WWP2 P444G, O00308	0.089 ± 0.049
